From patent US20180162947A1 (UCB, published 2018) come the findings set out here.

By Kd is commonly meant the free concentration of one partner at which half of the binding sites on the other are occupied at equilibrium, for simple one-to-one binding. As a reminder, the koff is the first-order rate constant of dissociation. In general, kon refers to the rate constant with which the complex forms. Usually IC50 stands for the concentration needed to halve the response being measured.

For experiment [1], the target named is T1, mouse CSF-1R (form not stated) (mouse, UniProt P09581 20-511, limits assumed).
T1 construct: also called murine CSF-1R
T1 sequence (looked up): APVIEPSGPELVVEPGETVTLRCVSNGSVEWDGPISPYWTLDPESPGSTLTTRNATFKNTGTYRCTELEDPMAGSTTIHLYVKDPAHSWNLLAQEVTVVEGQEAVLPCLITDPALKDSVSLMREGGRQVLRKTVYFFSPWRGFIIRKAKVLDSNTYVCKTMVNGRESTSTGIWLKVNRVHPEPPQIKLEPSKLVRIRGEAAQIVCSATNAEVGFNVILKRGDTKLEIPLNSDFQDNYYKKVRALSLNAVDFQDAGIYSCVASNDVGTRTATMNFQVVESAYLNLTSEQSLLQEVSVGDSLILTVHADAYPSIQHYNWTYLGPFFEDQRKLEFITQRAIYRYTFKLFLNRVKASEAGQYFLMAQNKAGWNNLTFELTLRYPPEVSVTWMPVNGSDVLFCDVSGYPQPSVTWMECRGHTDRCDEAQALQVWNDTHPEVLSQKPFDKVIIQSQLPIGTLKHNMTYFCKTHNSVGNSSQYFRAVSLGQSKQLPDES
Nature of the experiment: not described.

For experiment [2], the target named is T2, human CSF-1R on cells (THP-1 cells, transfected HEK293F cells, primary human monocytes) (human, UniProt P07333 20-972). Nature of the experiment: cell-based or functional assay.
For experiment [3], the target named is T2, human CSF-1R on cells (THP-1 cells, …). Nature of the experiment: cell-based or functional assay. The source holds these as a separate data set.
The target is the same in experiment [4]. Nature of the experiment: cell-based or functional assay. The source holds these as a separate data set.
Experiment [5] concerns the target T3, recombinant human CSF-1R (form not stated) (human, UniProt P07333 20-512, limits assumed).
T3 construct: for the ELISA no species is stated; also called recombinant CSF-1R; recombinant CSF-1R protein
The experiment can be described thus: BIAcore, experiment 1 of 3. On the procedure:
(§1) The assay format was capture of the anti-CSF-1R antibodies by immobilised anti-human IgG,F(ab′)₂, then a titration of hCSF-1R/Fc over the captured surface. BIA (Biomolecular Interaction Analysis) was performed using a BIAcore 3000 (GE Healthcare Bio-Sciences AB). All experiments were performed at 25° C. An AffiniPure F(ab′)₂ fragment goat anti-human IgG, F(ab′)₂ fragment specific (Jackson ImmunoResearch), was immobilised on a CM5 Sensor Chip (GE Healthcare Bio-Sciences AB) via amine coupling chemistry to a level of ˜5000 response units (RU). HBS-EP buffer (10 mM HEPES, pH 7.4, 0.15M NaCl, 3 mM EDTA, 0.005% Surfactant P20, GE Healthcare Bio-Sciences AB) was used as the running buffer with a flow rate of 10 μl/min.
On the technique in general: Surface plasmon resonance follows binding to a sensor surface in real time, without labels.

Experiment [6] deals with T3, recombinant human CSF-1R (form not …). The experiment can be described thus: BIAcore, experiment 2 of 3. On the procedure:
as §1

For experiment [7] the target is unchanged. The experiment can be described thus: BIAcore, experiment 3 of 3. On the procedure: as §1
For experiment [8] the target is unchanged. The experiment can be described thus: BIAcore, purified antibody, mean.
Experiment [9] has the same target. The experiment can be described thus: BIAcore, recombinant CSF-1R protein.
For experiment [10] the target is unchanged. The experiment can be described thus: BIAcore, purified antibody, experiment 1.
The target is the same in experiment [11]. Nature of the experiment: BIAcore, purified antibody, experiment 2.
The target in experiment [12] is T2, human CSF-1R on cells (THP-1 cells, …). The experiment can be described thus: inhibition of CSF-1 binding to THP-1 cells.
The target of experiment [13] is T3, recombinant human CSF-1R (form not …). The experiment can be described thus: BIAcore, mean of 3 (fourth row, unlabelled). On the procedure:
as §1

For experiment [14] the target is unchanged. The experiment can be described thus: BIAcore, DG/SG comparison, crude cell supernatant.
The target is the same in experiment [15]. Nature of the experiment: BIAcore, humanisation stage, crude cell supernatant.
Experiment [16] concerns the target T2, human CSF-1R on cells (THP-1 cells, …). The experiment can be described thus: quantitative flow cytometry on THP-1 cells, Alexa-488-labelled antibody.
Experiment [17] has as its target T4, recombinant human CSF-1R/Fc fusion protein (R&D Systems) (human, UniProt P07333 20-517).
T4 construct: extracellular domain; Bought from R&D Systems; also called hCSF-1R/Fc; not shown: Fc part of the bought fusion protein, not described
Nature of the experiment: BIAcore 3000, antibody captured by anti-human IgG F(ab')2, hCSF-1R/Fc in solution, 25 C. On the procedure:
Antibodies were tested for their ability to bind CSF-1R in a BIAcore assay by measurement of binding kinetics to a purified recombinant CSF-1R/Fc fusion protein.
as §1
Recombinant human CSF-1R/Fc (R&D Systems) was passed over the captured anti-CSF-1R antibody at 5 nM at a flow rate of 30 ul/min for 5 min, then the flow rate was increased to 100 ul/min for 30 min for the dissociation phase. The injection at 5 nM was performed twice along with a corresponding buffer control. These sensorgrams were used to generate the dissociation rate. […] These sensorgrams were used to generate the association rate. The surface was regenerated at a flow rate of 10 ul/min by a 10 ul injection of 40 mM HCl followed by a 5 ul injection of 10 mM NaOH. Double referenced background subtracted binding curves were analysed using the BIAevaluation software (version 4.1) following standard procedures. Kinetic parameters were determined from the fitting algorithm.

Experiment [18] addresses T3, recombinant human CSF-1R (form not …). Nature of the experiment: ELISA ligand-blocking assay, antibody pre-mixed with 1 ng/ml CSF-1 (competitor), plate-bound CSF-1R. An excerpt:
(§2) This method is from here on referred to as the ‘ELISA ligand-blocking assay’.
(An ELISA detects its analyte on a solid surface through an enzyme-linked reagent.)

For experiment [19] the target is unchanged. Nature of the experiment: ELISA ligand-blocking assay, antibody pre-mixed with 10 ng/ml CSF-1 (competitor), plate-bound CSF-1R.
Excerpt: as §2

Experiment [20] has the same target. The experiment can be described thus: ELISA ligand-blocking assay, antibody pre-mixed with 100 ng/ml CSF-1 (competitor), plate-bound CSF-1R.
Excerpt: as §2

“And” between values parts separate entries of the source, which are not always exact repeats. Equal values may be shown once.

T3 sequence (P07333 20-512 limits assumed): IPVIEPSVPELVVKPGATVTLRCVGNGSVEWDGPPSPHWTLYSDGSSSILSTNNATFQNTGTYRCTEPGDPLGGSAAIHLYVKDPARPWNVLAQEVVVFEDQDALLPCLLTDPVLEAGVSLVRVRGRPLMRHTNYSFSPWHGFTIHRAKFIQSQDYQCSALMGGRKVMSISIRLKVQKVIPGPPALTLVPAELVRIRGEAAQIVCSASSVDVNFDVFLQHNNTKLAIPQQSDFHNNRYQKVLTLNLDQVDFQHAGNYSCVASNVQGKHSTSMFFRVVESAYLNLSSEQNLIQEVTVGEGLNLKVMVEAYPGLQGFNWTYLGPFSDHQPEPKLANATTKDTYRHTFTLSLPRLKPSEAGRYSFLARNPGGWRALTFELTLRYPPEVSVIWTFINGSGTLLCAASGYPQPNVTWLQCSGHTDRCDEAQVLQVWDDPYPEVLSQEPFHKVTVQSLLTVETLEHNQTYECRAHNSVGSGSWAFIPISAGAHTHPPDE
T2 sequence (P07333 20-972): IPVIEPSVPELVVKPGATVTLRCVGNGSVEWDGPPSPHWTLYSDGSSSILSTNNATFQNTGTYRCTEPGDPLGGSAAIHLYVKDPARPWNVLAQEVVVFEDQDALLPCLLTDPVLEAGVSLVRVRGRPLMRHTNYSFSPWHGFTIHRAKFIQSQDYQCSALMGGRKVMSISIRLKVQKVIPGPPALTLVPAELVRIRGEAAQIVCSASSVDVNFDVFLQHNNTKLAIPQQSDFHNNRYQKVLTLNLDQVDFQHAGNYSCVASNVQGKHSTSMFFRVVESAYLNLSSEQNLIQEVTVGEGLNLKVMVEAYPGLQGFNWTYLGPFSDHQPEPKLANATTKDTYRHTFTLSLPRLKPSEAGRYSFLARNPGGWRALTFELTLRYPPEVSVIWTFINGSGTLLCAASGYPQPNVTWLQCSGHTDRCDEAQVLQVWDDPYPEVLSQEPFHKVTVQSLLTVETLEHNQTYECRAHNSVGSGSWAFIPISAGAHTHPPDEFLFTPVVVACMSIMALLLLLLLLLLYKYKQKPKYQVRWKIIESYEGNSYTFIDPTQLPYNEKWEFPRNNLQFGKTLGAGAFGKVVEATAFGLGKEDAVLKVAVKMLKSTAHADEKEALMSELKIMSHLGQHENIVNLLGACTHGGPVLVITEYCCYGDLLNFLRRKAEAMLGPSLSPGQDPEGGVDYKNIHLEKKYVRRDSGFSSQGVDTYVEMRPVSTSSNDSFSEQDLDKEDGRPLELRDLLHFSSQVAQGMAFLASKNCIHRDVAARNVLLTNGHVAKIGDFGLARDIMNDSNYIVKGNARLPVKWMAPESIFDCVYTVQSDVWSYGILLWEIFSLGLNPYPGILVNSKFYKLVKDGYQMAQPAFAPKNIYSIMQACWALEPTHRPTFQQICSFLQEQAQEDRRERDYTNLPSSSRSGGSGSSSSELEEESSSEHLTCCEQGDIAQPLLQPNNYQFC
T4 sequence (P07333 20-517): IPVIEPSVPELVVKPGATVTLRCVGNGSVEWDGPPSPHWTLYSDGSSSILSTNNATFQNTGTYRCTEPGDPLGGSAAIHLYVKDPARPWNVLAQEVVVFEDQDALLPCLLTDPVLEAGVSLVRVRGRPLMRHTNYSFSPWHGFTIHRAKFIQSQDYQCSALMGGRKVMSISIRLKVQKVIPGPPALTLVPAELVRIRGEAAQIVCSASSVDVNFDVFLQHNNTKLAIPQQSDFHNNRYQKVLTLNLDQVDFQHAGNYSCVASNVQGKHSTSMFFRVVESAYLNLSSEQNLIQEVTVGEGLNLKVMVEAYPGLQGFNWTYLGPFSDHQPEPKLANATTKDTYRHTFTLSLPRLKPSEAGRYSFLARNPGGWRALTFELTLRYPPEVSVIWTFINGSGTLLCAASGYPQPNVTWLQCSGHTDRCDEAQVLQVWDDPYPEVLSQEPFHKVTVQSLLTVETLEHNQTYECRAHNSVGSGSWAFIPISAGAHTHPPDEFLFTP

B1: Ab969.g2 (969gH2gL7) (antibody, human IgG4 S228P, kappa, V domains shown)
VH: EVTLKESGPALVKPTQTLTLTCTFSGFSLTTYGMGVGWIRQPPGKALEWLANIWWDDDKYYNPSLKNRLTISKDTSKNQVVLTMTNMDPVDTATYYCARIGPIKYPTAPYRYFDFWGQGTMVTVSS
VL: DIQMTQSPSSLSASVGDRVTITCLASEDIYDNLAWYQQKPGKAPKLLIYYASSLQDGVPSRFSGSGSGTDYTLTISSLQPEDFATYYCLQDSEYPWTFGGGTKVEIKR
notes: Full-length humanised IgG4 (S241P), human kappa (Km3 allotype); also called 969gH2gL7 DG; Ab969.2
In the case of B1, the binding result in experiment [1] is recorded as “no binding”.

B2: chimeric antibody 969 (rat variable regions, human gamma-4 heavy chain constant region and human kappa chain constant region) (antibody, human IgG4, V domains shown)
VH: QVTLKESGPGILQPSQTLSLTCTFSGFSLTTYGMGVGWIRQPSGKGLEWLANIWWDDDKYYNPSLKNRLTISKDTSNNQAFLKLTNVHTSDSATYYCARIGPIKYPTAPYRYFDFWGPGTMVTVSS
VL: DIQMTQSPASLSASLGETVSIECLASEDIYDNLAWYQKKPGKSPHLLIYYASSLQDGVPSRFSGSGSGTQYSLKINSLESEDAATYFCLQDSEYPWTFGGGTKLELKR
modifications: Alexa-488 label in the cell-based affinity assay; not carried by the letters.
notes: Full-length human IgG4 (S241P)/kappa chimeric; also called Ab969
On to B2, for which the “mean IC50, MCP-1 inhibition assay, primary human monocytes, 100 ng/ml CSF-1” value in experiment [2] was found to be 0.0246 mg/L. In addition, the “IC50, MCP-1 inhibition assay, Donor 1” value in [3] stood at 0.031 mg/L. In addition, the “IC50, MCP-1 inhibition assay, Donor 2” value in experiment [3] amounted to 0.0057 mg/L. Besides, the “IC50, MCP-1 inhibition assay, Donor 3” value in experiment [3] worked out at 0.0594 mg/L. For the same molecule, in experiment [3], the “IC50, MCP-1 inhibition assay, Donor 4” value was 0.0417 mg/L. The “IC50, MCP-1 inhibition assay, Donor 5” value in [3] was 0.0209 mg/L. Also, the “IC50, MCP-1 inhibition assay, Donor 6” value in [3] was determined as 0.007 mg/L. The “IC50, IL-34-dependent human monocyte assay (MCP-1 by ELISA), 100 ng/ml IL-34, Donor 1” value in experiment [4] came out at 0.0201 mg/L. In experiment [4], the “IC50, IL-34-dependent human monocyte assay (MCP-1 by ELISA), 100 ng/ml IL-34, Donor 2” value is 0.00979 mg/L. Moreover, the Kd in experiment [5] is 3.6 pM; in experiment [6], 3.9 pM; in experiment [7], 3.6 pM; in experiment [8], 4.3 pM; in experiment [9], 4.8 pM; in experiment [10] it was 4.4 pM. The Kd in experiment [11] is 4.2 pM; in experiment [13], 3.7 pM; in experiment [14], 2 pM; in experiment [15], 3.5 pM; in experiment [16], 2200 pM; in [17], 9.65 pM and 9.6 pM. The koff was found to be 1.03e-05 s⁻¹ in [5]; 1.1e-05 s⁻¹ in experiment [6]; 9.51e-06 s⁻¹ in experiment [7]; 9.3e-06 s⁻¹ in [8]; 9.49e-06 s⁻¹ in [10]; 9.1e-06 s⁻¹ in [11]. The koff in experiment [13] was found to be 1.03e-05 s⁻¹; in experiment [14], 8.53e-06 s⁻¹; in experiment [15], 7.99e-06 s⁻¹; in [17] it was 2.49e-05 s⁻¹. In addition, the kon in experiment [5] worked out at 2.83e+06 M⁻¹ s⁻¹; in experiment [6], 2.79e+06 M⁻¹ s⁻¹; in experiment [7], 2.68e+06 M⁻¹ s⁻¹; in experiment [8], 2.16e+06 M⁻¹ s⁻¹; in experiment [10], 2.16e+06 M⁻¹ s⁻¹; in [11] it was 2.16e+06 M⁻¹ s⁻¹. Further, the kon in experiment [13] turned out to be 2.77e+06 M⁻¹ s⁻¹; in [14], 4.35e+06 M⁻¹ s⁻¹; in experiment [15], 2.31e+06 M⁻¹ s⁻¹; in [17], 2.58e+06 M⁻¹ s⁻¹. Also, the IC50 was determined as 0.00289 mg/L in [12], 0.0128 mg/L in [18], 0.0793 mg/L in [19] and 0.829 mg/L in [20].
